US20080242587A1

Assays:
[1] = target: Ang2 (produced from CHO cell) (UniProt O15123); experiment: ELISA titration, Ang2 coated, anti-human Fc-HRP
[2] = target: VEGF-A165 (produced from CHO cell) (UniProt P15692); experiment: ELISA titration (0-3 nM), VEGF-A coated, anti-human Fc-HRP
UniProt P15692, sequence (P15692 other isoform, or with tags, fused parts or gaps limits assumed): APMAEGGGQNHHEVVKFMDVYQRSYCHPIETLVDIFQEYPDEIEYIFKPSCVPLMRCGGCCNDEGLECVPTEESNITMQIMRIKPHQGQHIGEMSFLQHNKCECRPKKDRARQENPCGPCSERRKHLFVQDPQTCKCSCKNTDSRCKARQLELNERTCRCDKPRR

UniProt O15123, sequence (O15123 19-496 limits assumed): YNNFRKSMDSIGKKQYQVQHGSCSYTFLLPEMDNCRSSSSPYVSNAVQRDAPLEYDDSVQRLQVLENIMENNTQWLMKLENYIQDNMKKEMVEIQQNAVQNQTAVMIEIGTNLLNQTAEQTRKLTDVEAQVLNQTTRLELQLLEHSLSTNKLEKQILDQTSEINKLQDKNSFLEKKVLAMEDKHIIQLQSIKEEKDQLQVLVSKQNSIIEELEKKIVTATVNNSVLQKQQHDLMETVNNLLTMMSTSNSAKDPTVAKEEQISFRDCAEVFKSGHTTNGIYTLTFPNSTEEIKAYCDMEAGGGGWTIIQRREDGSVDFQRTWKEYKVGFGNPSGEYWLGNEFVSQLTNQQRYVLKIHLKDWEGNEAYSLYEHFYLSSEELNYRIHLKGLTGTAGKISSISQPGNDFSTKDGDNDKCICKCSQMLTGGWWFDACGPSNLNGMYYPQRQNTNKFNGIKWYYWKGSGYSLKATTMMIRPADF

| Substance | Kd [1] [nM] | Kd [2] [nM] |
| --- | --- | --- |
| Tie2-Fc (Fc fusion) | 50 | – |
| VEGF-trap (Fc fusion) | – | 0.001 |
